The results in this text go back to publication PMC7891180, “Exploring the Role of a Cytokinin-Activating Enzyme LONELY GUY in Unicellular Microalga Chlorella variabilis” (Frontiers in Plant Science, 2021).

Substrate in data set [1]: CC(C)=CCNc1ncnc2c1ncn2[C@@H]1O[C@H](COP(=O)(O)O)[C@@H](O)[C@H]1O
As to the kind of experiment: purified protein. It counts as biochemical, Chlorella variabilis. The conditions noted are these: 50 mM Tris, 1 mM MgCl2, 1 mM DTT, pH 7, 30 °C.

Substrate in data set [2]: C/C(=C\CNc1ncnc2c1ncn2[C@@H]1O[C@H](COP(=O)(O)O)[C@@H](O)[C@H]1O)CO
Kind of data set: purified protein. Format: biochemical, Chlorella variabilis. The conditions noted are these: 50 mM Tris, 1 mM MgCl2, 1 mM DTT, pH 7, 30 °C.

B1: CvarLOG1 (Chlorella variabilis) (protein)
chain: MADSQPASFRKIAVFCGASSGSNPLYIEAARLLGAEMARRGIGLVYGGGNVGLMGAVAEAVGSRLGPDQVIGVIPAALEPREISGTTVGEIRVVGSMHERKAMMFEEADAFIMIPGGYGTLDETLEITTWQQLGFHTKPVGLLNINGFFNKLLAFLDHATQEGFIRPSSRAILVSGDTPGELIDTLAAYQAPPSLLRLASEGKLGVHERG
notes: native protein 211 residues
What is called Km is the substrate concentration at which the rate is half of its maximum. With B1, the figures for the Km in data set [1] and in data set [2] were 54.99 µM and 133.5 µM, respectively.
